From US20120122239A1

Key:
[1] = target: human pro B-type natriuretic peptide (HyTest, Turku, Finland; Catalog No. 8PRO8) (human); experiment: sandwich CMIA, capture 15F11, 577.4 pM, against human NT-proBNP
[2] = target: human NT-pro B-type natriuretic peptide (HyTest, Turku, Finland; Catalog No. 8NT1) (human); experiment: sandwich CMIA, capture 15F11, analyte 43.3 pM
[3] = target: human pro B-type natriuretic peptide (HyTest, Turku, Finland; Catalog No. 8PRO8) (human); experiment: sandwich CMIA, capture 15F11, analyte 43.3 pM
[4] = target: glycosylated human proBNP (HyTest, Turku, Finland; Catalog No. 8GOB2) (human); experiment: sandwich CMIA, capture 15F11, analyte 43.3 pM
[5] = target: human NT-pro B-type natriuretic peptide (HyTest, Turku, Finland; Catalog No. 8NT1) (human); experiment: sandwich CMIA, capture 15C4, analyte 43.3 pM
[6] = target: human pro B-type natriuretic peptide (HyTest, Turku, Finland; Catalog No. 8PRO8) (human); experiment: sandwich CMIA, capture 15C4, analyte 43.3 pM
[7] = target: glycosylated human proBNP (HyTest, Turku, Finland; Catalog No. 8GOB2) (human); experiment: sandwich CMIA, capture 15C4, analyte 43.3 pM
[8] = target: human pro B-type natriuretic peptide (HyTest, Turku, Finland; Catalog No. 8PRO8) (human); experiment: sandwich CMIA, capture 15C4, 86.6 pM, against human NT-proBNP
[9] = target: glycosylated human proBNP (HyTest, Turku, Finland; Catalog No. 8GOB2) (human); experiment: as above
[10] = target: human pro B-type natriuretic peptide (HyTest, Turku, Finland; Catalog No. 8PRO8) (human); experiment: sandwich CMIA, capture 15F11, 288.7 pM, against human NT-proBNP
[11] = target: glycosylated human proBNP (HyTest, Turku, Finland; Catalog No. 8GOB2) (human); experiment: as above
[12] = target: human NT-pro B-type natriuretic peptide (HyTest, Turku, Finland; Catalog No. 8NT1) (human); experiment: sandwich CMIA, capture 15C4, analyte 577.4 pM
[13] = target: human pro B-type natriuretic peptide (HyTest, Turku, Finland; Catalog No. 8PRO8) (human); experiment: sandwich CMIA, capture 15C4, analyte 577.4 pM
[14] = target: glycosylated human proBNP (HyTest, Turku, Finland; Catalog No. 8GOB2) (human); experiment: sandwich CMIA, capture 15C4, analyte 577.4 pM
[15] = target: human NT-pro B-type natriuretic peptide (HyTest, Turku, Finland; Catalog No. 8NT1) (human); experiment: sandwich CMIA, capture 15C4, analyte 0.0 pM (blank)
[16] = target: human pro B-type natriuretic peptide (HyTest, Turku, Finland; Catalog No. 8PRO8) (human); experiment: as above
[17] = target: glycosylated human proBNP (HyTest, Turku, Finland; Catalog No. 8GOB2) (human); experiment: as above
[18] = target: human NT-pro B-type natriuretic peptide (HyTest, Turku, Finland; Catalog No. 8NT1) (human); experiment: sandwich CMIA, capture 15C4, analyte 86.6 pM
[19] = target: human pro B-type natriuretic peptide (HyTest, Turku, Finland; Catalog No. 8PRO8) (human); experiment: sandwich CMIA, capture 15C4, analyte 86.6 pM
[20] = target: glycosylated human proBNP (HyTest, Turku, Finland; Catalog No. 8GOB2) (human); experiment: sandwich CMIA, capture 15C4, analyte 86.6 pM
[21] = target: human NT-pro B-type natriuretic peptide (HyTest, Turku, Finland; Catalog No. 8NT1) (human); experiment: sandwich CMIA, capture 15F11, analyte 86.6 pM
[22] = target: human pro B-type natriuretic peptide (HyTest, Turku, Finland; Catalog No. 8PRO8) (human); experiment: sandwich CMIA, capture 15F11, analyte 86.6 pM
[23] = target: glycosylated human proBNP (HyTest, Turku, Finland; Catalog No. 8GOB2) (human); experiment: sandwich CMIA, capture 15F11, analyte 86.6 pM
[24] = target: human pro B-type natriuretic peptide (HyTest, Turku, Finland; Catalog No. 8PRO8) (human); experiment: sandwich CMIA, capture 15C4, 288.7 pM, against human NT-proBNP
[25] = target: glycosylated human proBNP (HyTest, Turku, Finland; Catalog No. 8GOB2) (human); experiment: as above
[26] = target: human pro B-type natriuretic peptide (HyTest, Turku, Finland; Catalog No. 8PRO8) (human); experiment: sandwich CMIA, capture 15F11, 43.3 pM, against human NT-proBNP
[27] = target: glycosylated human proBNP (HyTest, Turku, Finland; Catalog No. 8GOB2) (human); experiment: as above
[28] = target: human pro B-type natriuretic peptide (HyTest, Turku, Finland; Catalog No. 8PRO8) (human); experiment: sandwich CMIA, capture 15C4, 577.4 pM, against human NT-proBNP
[29] = target: glycosylated human proBNP (HyTest, Turku, Finland; Catalog No. 8GOB2) (human); experiment: as above
[30] = target: human NT-pro B-type natriuretic peptide (HyTest, Turku, Finland; Catalog No. 8NT1) (human); experiment: sandwich CMIA, capture 15F11, analyte 0.0 pM (blank)
[31] = target: human pro B-type natriuretic peptide (HyTest, Turku, Finland; Catalog No. 8PRO8) (human); experiment: as above
[32] = target: glycosylated human proBNP (HyTest, Turku, Finland; Catalog No. 8GOB2) (human); experiment: as above
[33] = target: human pro B-type natriuretic peptide (HyTest, Turku, Finland; Catalog No. 8PRO8) (human); experiment: sandwich CMIA, capture 15C4, 43.3 pM, against human NT-proBNP
[34] = target: glycosylated human proBNP (HyTest, Turku, Finland; Catalog No. 8GOB2) (human); experiment: as above

Chain of human pro B-type natriuretic peptide (HyTest, Turku, Finland; Catalog No. 8PRO8) (human) (chain, as listed by the source): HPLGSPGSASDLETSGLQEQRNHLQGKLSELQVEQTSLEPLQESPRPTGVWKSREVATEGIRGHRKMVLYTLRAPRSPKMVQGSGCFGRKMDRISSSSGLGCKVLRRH
Chain of human NT-pro B-type natriuretic peptide (HyTest, Turku, Finland; Catalog No. 8NT1) (human) (chain, as listed by the source): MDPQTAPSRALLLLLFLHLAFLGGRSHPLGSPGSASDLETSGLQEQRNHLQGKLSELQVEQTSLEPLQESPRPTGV

- % Cross-reactivity [1]: 31.8%
- Analyte rlus [2]: 1990 rlus
- Analyte rlus [3]: 1570 rlus
- Analyte rlus [4]: 2320 rlus
- Analyte rlus [5]: 8870 rlus
- Analyte rlus [6]: 2170 rlus
- Analyte rlus [7]: 877 rlus
- % Cross-reactivity [8]: 16%
- % Cross-reactivity [9]: 0.7%
- % Cross-reactivity [10]: 38.3%
- % Cross-reactivity [11]: 113%
- Analyte rlus [12]: 180000 rlus
- Analyte rlus [13]: 25900 rlus
- Analyte rlus [14]: 1420 rlus
- Analyte rlus [15]: 892 rlus
- Analyte rlus [16]: 892 rlus
- Analyte rlus [17]: 892 rlus
- Analyte rlus [18]: 19300 rlus
- Analyte rlus [19]: 3830 rlus
- Analyte rlus [20]: 1020 rlus
- Analyte rlus [21]: 3540 rlus
- Analyte rlus [22]: 2210 rlus
- Analyte rlus [23]: 4470 rlus
- % Cross-reactivity [24]: 13.7%
- % Cross-reactivity [25]: 0.4%
- % Cross-reactivity [26]: 61.2%
- % Cross-reactivity [27]: 132%
- % Cross-reactivity [28]: 14%
- % Cross-reactivity [29]: 0.3%
- Analyte rlus [30]: 912 rlus
- Analyte rlus [31]: 912 rlus
- Analyte rlus [32]: 912 rlus
- % Cross-reactivity [33]: 16%
- % Cross-reactivity [34]: -0.2%
Substance: anti-human NT-proBNP/anti-human proBNP labeled monoclonal antibody 29D12 (HyTest, Turku, Finland)
